# Data from patent publication EP4223783A2 (dated 2023).
# B1: Anti-CD-52 2C3 A114N mutant antibody (antibody, human IgG1, kappa)
# heavy: not shown
# light: DIVMTQTPLSLSVTPGQPASISCKSSQSLLYSNGKTYLNWLLQKPGQSPQRLIYLVSKLDSGVPDRFSGSGSGTDFTLKISRVEAEDVGVYYCVQGTHLHTFGQGTRLEIKRTVAAPSVFIFPPSDEQLKSGTASVVCLLNNFYPREAKVQWKVDNALQSGNSQESVTEQDSKDSTYSLSSTLTLSKADYEKHKVYACEVTHQGLSSPVTKSFNRGEC
# modifications: additional N-linked glycan at the engineered Asn 114 (Kabat)
# notes: Full-length IgG1; mutated heavy chain with the WT 2C3 light chain
# B2: Anti-CD-52 2C3 S298N/Y300S mutant antibody (antibody, human IgG1, kappa)
# heavy: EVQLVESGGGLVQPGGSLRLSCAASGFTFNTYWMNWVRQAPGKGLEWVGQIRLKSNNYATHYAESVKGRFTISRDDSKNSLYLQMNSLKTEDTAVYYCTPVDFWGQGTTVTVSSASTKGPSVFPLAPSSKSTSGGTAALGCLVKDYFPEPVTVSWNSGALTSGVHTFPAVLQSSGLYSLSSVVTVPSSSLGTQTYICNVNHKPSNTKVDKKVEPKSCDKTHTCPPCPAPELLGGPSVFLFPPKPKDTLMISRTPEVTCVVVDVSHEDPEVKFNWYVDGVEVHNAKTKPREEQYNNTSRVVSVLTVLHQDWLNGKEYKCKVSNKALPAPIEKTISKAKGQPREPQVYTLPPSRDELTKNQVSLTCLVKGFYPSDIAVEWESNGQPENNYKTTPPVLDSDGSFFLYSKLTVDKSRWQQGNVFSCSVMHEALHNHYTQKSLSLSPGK
# light: B1 light
# notes: Full-length IgG1; also called S298N/Y300S 2C3 variant; S298/Y300S
# B3: Anti-CD-52 2C3 S440N mutant antibody (antibody, IgG1)
# heavy: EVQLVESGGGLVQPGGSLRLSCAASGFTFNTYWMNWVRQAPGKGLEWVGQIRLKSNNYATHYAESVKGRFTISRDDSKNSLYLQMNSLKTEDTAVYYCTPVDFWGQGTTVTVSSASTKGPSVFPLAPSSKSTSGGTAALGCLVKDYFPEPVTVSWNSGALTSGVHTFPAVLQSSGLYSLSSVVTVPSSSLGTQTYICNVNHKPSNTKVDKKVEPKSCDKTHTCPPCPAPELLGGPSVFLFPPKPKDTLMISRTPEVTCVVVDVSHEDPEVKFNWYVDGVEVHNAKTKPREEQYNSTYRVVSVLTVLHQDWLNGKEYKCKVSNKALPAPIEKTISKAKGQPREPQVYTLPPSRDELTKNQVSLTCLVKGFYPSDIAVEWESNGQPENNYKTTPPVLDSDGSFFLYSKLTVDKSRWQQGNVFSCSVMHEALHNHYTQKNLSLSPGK
# light: B1 light
# notes: as for B1
# B4: Anti-CD-52 2C3 S442N mutant antibody (antibody, IgG1)
# heavy: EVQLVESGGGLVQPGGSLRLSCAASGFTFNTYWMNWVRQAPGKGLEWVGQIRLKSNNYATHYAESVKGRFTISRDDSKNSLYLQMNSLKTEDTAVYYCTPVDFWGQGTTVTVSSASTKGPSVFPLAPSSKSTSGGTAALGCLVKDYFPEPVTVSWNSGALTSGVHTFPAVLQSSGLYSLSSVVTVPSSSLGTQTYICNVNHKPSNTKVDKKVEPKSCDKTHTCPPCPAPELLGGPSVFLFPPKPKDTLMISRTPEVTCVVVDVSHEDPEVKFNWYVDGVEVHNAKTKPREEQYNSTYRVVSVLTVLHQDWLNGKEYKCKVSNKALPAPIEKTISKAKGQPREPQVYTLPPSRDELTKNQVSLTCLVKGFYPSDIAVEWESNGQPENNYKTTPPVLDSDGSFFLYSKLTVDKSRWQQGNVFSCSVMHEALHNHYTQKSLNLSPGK
# light: B1 light
# notes: as for B1
# B5: Anti-CD-52 2C3 NGT mutant antibody (antibody, human IgG1, kappa)
# heavy: not shown
# light: B1 light
# notes: Full-length IgG1; NGT added to the C-terminus of the heavy chain; WT 2C3 light chain; also called Add NGT to C-terminal
# Biological target: T1, SEC-purified human FcRn-HPC4 (human, UniProt P55899 24-297; P61769 21-119)
# T1 construct: Immobilized on a CM5 chip by amine coupling; also called human FcRn receptor; not shown: HPC4 tag
# Assay: Biacore SPR; antibody at 200, 50 and 10nM over immobilized FcRn
# T1 sequence (P55899 24-297, chain 1 of 2): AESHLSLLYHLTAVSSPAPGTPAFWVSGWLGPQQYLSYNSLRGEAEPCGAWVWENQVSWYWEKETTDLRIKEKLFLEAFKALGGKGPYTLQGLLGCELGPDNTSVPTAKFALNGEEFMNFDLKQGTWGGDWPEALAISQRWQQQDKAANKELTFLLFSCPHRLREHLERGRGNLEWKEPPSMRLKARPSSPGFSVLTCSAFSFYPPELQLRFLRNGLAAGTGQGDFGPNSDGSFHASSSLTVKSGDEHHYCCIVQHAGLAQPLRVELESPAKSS
# T1 sequence (P61769 21-119, chain 2 of 2): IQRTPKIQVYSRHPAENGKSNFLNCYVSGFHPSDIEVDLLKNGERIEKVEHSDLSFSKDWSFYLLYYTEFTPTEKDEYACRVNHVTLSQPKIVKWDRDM
row,Binder,binding result
1,B1,binds
2,B2,binds
3,B3,binds
4,B4,binds
5,B5,binds
